Where two headings read alike, the source gives them in different places.
Tests used:
mouse CLDN6 = target: T1, mouse CLDN6 (mouse, UniProt Q9Z262 1-219); assay: FACS on CHO-K1-Mouse CLDN6 cells
T1 construct: whole, on cells; also called CHO-K1-Mouse CLDN6
T1 sequence (looked up): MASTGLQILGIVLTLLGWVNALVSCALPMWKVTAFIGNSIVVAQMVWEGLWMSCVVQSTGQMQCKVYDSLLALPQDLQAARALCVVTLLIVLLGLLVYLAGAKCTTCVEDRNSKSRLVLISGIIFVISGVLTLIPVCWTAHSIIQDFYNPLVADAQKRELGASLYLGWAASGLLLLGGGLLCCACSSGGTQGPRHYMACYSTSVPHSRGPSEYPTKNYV

human CLDN6 [1] = target: T2, human CLDN6 (human, UniProt P56747 1-220); assay: FACS on HEK293T-CLDN6 cells
T2 construct: whole, on cells; four-transmembrane protein; also called claudin-6; HEK293T-CLDN6
T2 sequence (looked up): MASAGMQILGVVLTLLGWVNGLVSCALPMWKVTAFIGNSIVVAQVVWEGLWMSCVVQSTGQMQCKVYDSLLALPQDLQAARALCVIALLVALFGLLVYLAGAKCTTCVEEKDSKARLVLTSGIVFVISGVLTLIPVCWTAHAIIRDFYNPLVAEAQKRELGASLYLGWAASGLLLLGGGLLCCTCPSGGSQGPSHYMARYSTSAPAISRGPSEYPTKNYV
Method: To detect a binding capacity of a chimeric or humanized antibody to CLDN6, a CLDN6-expressing cell line HEK293T-CLDN6 and a CLDN6-negative control cell line HEK293T were washed three times with PBS. 1×10⁵ test cells and 50 μL of an antibody solution to be tested were added to a 96-well plate, and incubated at 4° C. for 1 h. The cells were then washed three times with PBS. […] Finally, cells were washed three times with PBS, and signals were read using FACS.
An EC50 value (a concentration of an antibody that binds to half of binding sites at equilibrium) is calculated through nonlinear regression.

human CLDN6 [2] = target: T2, human CLDN6; assay: FACS on HepG2 tumour cells; target on the cells taken as CLDN6
Method: (§1) 50 μL of an antibody to be tested was added to a 96-well plate, then 1×10⁵ cells were added to each well, and incubation was conducted at 4° C. for 1 h. Cells were washed three times with PBS. […] Finally, cells were washed three times with PBS, and signals were read using FACS. A binding capacity of the antibody to each tumor cell was analyzed based on detection data.

[3] = target: T3, monkey CLDN6 (Cyno CLDN6) (monkey (Cyno)); assay: FACS on CHO-K1-Cyno CLDN6 cells
T3 construct: whole, on cells; also called CHO-K1-Cyno CLDN6

human CLDN6 [4] = target: T2, human CLDN6; assay: FACS on PA-1 tumour cells; target on the cells taken as CLDN6
Method: The specific binding of a chimeric antibody to a tumor cell was detected by FACS, and an EC50 value was calculated accordingly to evaluate an inhibitory effect of the chimeric antibody on the tumor cell.
as §1

human CLDN6 [5] = target: T2, human CLDN6; assay: FACS on CLDN6 cells (same value as Table 3, HEK293T-CLDN6)
human CLDN6 [6] = target: T2, human CLDN6; assay: FACS on 293T-CLDN6 cells, 10 µg/mL
human CLDN6 [7] = target: T2, human CLDN6; assay: FACS on HepG2 tumour cells; target on the cells taken as CLDN6; remark: listed apart in the source
Method: as §1

human CLDN6 [8] = target: T2, human CLDN6; assay: as above; remark: listed apart in the source
Method: as §1

human CLDN6 [9] = target: T2, human CLDN6; assay: FACS on 293T-CLDN6 cells, 10 µg/mL; remark: listed apart in the source
human CLDN6 [10] = target: T2, human CLDN6; assay: FACS on PA-1 tumour cells; target on the cells taken as CLDN6; remark: listed apart in the source
Method: as §1

human CLDN6 [11] = target: T2, human CLDN6; assay: as above; remark: listed apart in the source
Method: as §1

human CLDN3 = target: T4, human CLDN3 (human, UniProt O15551 1-220); assay: FACS on 293T-CLDN3 cells, 10 µg/mL
T4 construct: whole, on cells; also called HEK293T-CLDN3
T4 sequence (looked up): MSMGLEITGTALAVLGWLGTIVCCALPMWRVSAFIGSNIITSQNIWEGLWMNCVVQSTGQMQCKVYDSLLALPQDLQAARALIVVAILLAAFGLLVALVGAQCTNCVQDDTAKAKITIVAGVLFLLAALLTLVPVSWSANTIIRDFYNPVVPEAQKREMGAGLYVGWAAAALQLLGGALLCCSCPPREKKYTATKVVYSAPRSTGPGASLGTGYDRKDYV
Method: as §1, with “1× 10⁵” for “1×10⁵”, “Binding capacities” for “A binding capacity”, “CLDN9, CLDN3, and CLDN4 were” for “each tumor cell was”, “analyzed separately” for “analyzed”

human CLDN9 [12] = target: T5, human CLDN9 (human, UniProt O95484 1-217); assay: FACS on 293T-CLDN9 cells, 10 µg/mL
T5 construct: whole, on cells; also called HEK293T-CLDN9
T5 sequence (looked up): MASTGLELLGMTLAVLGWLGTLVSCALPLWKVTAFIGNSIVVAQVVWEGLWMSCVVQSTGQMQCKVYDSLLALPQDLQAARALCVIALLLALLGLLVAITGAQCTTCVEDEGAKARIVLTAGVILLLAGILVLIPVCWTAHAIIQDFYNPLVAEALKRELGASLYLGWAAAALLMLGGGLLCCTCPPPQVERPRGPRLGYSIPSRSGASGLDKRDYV
Method: as §1, with “1× 10⁵” for “1×10⁵”, “Binding capacities” for “A binding capacity”, “CLDN9, CLDN3, and CLDN4 were” for “each tumor cell was”, “analyzed separately” for “analyzed”

human CLDN9 [13] = target: T5, human CLDN9; assay: FACS on 293T-CLDN9 cells, 10 µg/mL; remark: listed apart in the source
Method: as §1, with “1× 10⁵” for “1×10⁵”, “Binding capacities” for “A binding capacity”, “CLDN9, CLDN3, and CLDN4 were” for “each tumor cell was”, “analyzed separately” for “analyzed”

human CLDN6 [14] = target: T2, human CLDN6; assay: ratio of FACS Geom.Mean on 293T-CLDN6 over 293T-CLDN9, 10 µg/mL
Method: as §1, with “1× 10⁵” for “1×10⁵”, “Binding capacities” for “A binding capacity”, “CLDN9, CLDN3, and CLDN4 were” for “each tumor cell was”, “analyzed separately” for “analyzed”

EC50 (mouse CLDN6): 0.181 µg/mL
EC50 (human CLDN6 [1]): 0.282 µg/mL
EC50 (human CLDN6 [2]): 0.515 µg/mL
EC50 [3]: 0.131 µg/mL
EC50 (human CLDN6 [4]): 0.0741 µg/mL
EC50 (human CLDN6 [5]): 0.213 µg/mL
Geom.Mean (human CLDN6 [6]): 23600
EC50 (human CLDN6 [7]): 0.583 µg/mL
EC50 (human CLDN6 [8]): 0.242 µg/mL
Geom.Mean (human CLDN6 [9]): 44300
EC50 (human CLDN6 [10]): 0.141 µg/mL
EC50 (human CLDN6 [11]): 0.223 µg/mL
Geom.Mean (human CLDN3): 151
Geom.Mean (human CLDN9 [12]): 1810
Geom.Mean (human CLDN9 [13]): 3810
CLDN6/CLDN9 ratio (human CLDN6 [14]): 45
B1: IMAB027 (antibody, human IgG1, kappa, V domains shown)
VH: EVQLQQSGPELVKPGASMKISCKASGYSFTGYTMNWVKQSHGKNLEWIGLINPYNGGTIYNQKFKGKATLTVDKSSSTAYMELLSLTSEDSAVYYCARDYGFVLDYWGQGTTLTVSS
VL: IVLTQSPAIMSASPGEKVTITCSASSSVSYLHWFQQKPGTSPKLWVYSTSNLPSGVPARFGGSGSGTSYSLTISRMEAEDAATYYCQQRSIYPPWTFGGGTKLEIKR
notes: variable regions of mAb206-LCC on human IgG1 constant regions; also called benchmark antibody; control antibody

Source: US20260139049A1 (PEDIATRIC IMMUNITY AND HEALTHCARE GUANGZHOU BIOTECHNOLOGY, published 2026)
